From US6805861B2, “Immunotherapy using cytotoxic T lymphocytes (CTL)” (Imperial College Innovations Limited, priority 1996, dated 2004)
Like-named read-outs stand apart in the source and are kept apart here.

Assays:
[1] = CTL stimulation by mdm100 peptide in C57BL/6 mice; type: in vivo, mouse; settings: self-restricted repertoire
H-2K^b class I molecules = target: T1, H-2K^b class I molecules (Mus musculus, UniProt P01901); assay: Binding of peptide to H-2K^b class I molecules
T1 sequence (P01901 22-369): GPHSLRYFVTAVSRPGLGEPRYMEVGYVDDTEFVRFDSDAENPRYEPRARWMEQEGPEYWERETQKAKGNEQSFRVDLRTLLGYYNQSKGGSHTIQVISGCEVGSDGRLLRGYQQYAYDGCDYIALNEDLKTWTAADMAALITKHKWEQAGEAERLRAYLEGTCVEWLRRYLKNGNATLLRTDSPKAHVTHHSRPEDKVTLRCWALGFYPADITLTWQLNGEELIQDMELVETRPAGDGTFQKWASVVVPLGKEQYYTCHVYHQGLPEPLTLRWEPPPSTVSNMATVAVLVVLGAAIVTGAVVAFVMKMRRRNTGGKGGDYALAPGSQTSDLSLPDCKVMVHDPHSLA
T1 sequence (P01887 21-119 partner): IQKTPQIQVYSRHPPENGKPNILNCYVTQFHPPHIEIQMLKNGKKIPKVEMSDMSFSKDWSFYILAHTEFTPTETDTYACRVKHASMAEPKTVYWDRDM
Experimental: Peptides: The mdm100 peptide corresponds to amino acid 100-107 (YAMIYRNL; SEQ ID No 1) of the murine mdm-2 protein. […] All peptides used in this study were synthesised by the central peptide synthesis laboratory of the Imperial Cancer Research Fund, London, using finoc chemistry. The quality of the peptides were assessed by HPLC analysis and the expected molecular weight was observed using MALDI mass-spectrometry. The peptides were dissolved in phosphate buffered saline (pH 7.4) to give a concentration of 2 mM and stored at −20° C.

binding to H-2K^b class I molecules (H-2K^b class I molecules): bound efficiently | binding to H-2K^b class I molecules (H-2K^b class I molecules; listed as mdm100): efficiently bound
Sequence: YAMIYRNL [mdm100 peptide]
CTL stimulated by the peptide in C57BL/6 mice (H-2^b) [1]: only stimulated low avidity CTL
